The text below walks through data of patent US20090226442A1 (published 2009).

Experiment [1] concerns the target human RON (recepteur d'origine nantais, MST1R), full length, expressed on cells (UniProt Q04912 25-1400). Nature of the experiment: FACS. (A flow cytometer gives signals particle by particle.)
Experiment [2] deals with T1, soluble human RON protein (R&D Systems, catalog 1947) (UniProt Q04912 25-571). Nature of the experiment: ELISA.
In experiment [3] the target is T2, soluble cynomolgus (Macaca fascicularis) RON protein (cynomolgus (Macaca fascicularis), UniProt A0A2K5VT07 25-571).
T2 chain: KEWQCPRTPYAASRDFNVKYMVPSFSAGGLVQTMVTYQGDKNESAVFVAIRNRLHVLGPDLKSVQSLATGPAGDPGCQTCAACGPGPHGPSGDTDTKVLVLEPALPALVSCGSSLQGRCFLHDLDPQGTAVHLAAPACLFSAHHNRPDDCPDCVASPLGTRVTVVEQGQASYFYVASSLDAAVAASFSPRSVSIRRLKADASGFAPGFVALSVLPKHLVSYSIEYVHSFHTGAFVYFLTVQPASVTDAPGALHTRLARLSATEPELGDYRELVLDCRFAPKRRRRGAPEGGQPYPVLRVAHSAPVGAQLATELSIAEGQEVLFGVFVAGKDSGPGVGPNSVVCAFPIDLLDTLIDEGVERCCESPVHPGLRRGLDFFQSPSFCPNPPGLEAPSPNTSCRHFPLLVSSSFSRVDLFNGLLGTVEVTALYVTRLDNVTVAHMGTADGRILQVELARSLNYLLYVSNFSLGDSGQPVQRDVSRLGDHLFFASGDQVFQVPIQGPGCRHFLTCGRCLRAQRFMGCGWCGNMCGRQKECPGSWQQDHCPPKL
Nature of the experiment: ELISA; 4-P fit C.

The target of experiment [4] is T1, soluble human RON protein (R&D Systems, …). Nature of the experiment: ELISA; 4-P fit C.
The target of experiment [5] is T2, soluble cynomolgus (Macaca …). Nature of the experiment: ELISA; 4-P fit C. In general terms: An ELISA detects its analyte on a solid surface through an enzyme-linked reagent.
The target in experiment [6] is T1, soluble human RON protein (R&D Systems, …). Nature of the experiment: ELISA; 4-P fit C. This is another data set of the same source.

Like-named read-outs stand apart in the source and are kept apart here.

T1 sequence (Q04912 25-571): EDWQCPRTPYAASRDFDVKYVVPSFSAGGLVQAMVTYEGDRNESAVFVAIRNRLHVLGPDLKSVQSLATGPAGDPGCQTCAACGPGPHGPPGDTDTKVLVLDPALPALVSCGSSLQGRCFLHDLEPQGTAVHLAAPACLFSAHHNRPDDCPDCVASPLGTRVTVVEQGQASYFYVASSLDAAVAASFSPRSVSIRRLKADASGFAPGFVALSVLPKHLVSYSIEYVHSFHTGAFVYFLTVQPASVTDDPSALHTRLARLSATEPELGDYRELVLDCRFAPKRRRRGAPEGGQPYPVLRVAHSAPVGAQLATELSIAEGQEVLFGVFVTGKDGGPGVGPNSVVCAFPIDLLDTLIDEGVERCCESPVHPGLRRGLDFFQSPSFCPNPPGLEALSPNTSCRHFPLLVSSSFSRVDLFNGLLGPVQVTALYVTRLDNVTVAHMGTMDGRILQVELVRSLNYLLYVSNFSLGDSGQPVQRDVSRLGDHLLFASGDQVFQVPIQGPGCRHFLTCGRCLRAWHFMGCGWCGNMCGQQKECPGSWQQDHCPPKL
human RON (recepteur d'origine nantais, MST1R), full length, expressed on cells, sequence (Q04912 25-1400): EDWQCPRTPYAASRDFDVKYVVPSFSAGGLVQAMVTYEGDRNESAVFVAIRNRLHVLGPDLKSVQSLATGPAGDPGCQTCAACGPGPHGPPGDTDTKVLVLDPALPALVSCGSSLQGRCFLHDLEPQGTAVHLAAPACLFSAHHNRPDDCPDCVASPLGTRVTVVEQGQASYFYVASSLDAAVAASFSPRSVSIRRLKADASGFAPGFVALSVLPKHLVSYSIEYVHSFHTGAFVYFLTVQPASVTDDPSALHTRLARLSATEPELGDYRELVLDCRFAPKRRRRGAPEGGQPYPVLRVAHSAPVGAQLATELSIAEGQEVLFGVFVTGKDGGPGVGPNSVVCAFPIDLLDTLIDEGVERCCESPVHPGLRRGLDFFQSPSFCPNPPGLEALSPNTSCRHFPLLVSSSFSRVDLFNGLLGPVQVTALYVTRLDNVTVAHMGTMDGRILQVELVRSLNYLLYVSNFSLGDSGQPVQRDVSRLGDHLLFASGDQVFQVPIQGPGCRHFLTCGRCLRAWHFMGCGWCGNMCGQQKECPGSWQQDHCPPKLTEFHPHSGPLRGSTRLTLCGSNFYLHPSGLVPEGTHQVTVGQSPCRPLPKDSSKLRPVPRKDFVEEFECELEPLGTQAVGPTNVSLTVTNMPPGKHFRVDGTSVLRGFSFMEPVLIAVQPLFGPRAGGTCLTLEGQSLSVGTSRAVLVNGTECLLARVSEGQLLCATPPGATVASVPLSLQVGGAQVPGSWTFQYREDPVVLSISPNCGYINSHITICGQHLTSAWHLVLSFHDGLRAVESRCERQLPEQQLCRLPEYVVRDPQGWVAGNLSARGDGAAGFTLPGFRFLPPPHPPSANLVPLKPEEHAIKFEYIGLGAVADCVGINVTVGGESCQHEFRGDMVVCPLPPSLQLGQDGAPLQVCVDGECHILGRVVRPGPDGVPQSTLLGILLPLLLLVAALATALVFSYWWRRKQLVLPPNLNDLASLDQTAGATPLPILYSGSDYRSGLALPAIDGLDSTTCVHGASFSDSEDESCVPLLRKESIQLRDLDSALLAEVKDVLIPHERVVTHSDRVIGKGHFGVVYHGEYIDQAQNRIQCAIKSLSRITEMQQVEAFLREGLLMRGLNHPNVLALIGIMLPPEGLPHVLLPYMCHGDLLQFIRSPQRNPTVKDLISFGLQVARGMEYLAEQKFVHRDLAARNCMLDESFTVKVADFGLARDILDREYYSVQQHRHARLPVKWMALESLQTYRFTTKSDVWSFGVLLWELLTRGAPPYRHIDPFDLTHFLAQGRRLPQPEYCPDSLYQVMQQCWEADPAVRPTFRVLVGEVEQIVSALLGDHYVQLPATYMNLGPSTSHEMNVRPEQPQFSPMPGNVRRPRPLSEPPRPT

B1: 1P5B10 murine monoclonal anti-RON antibody (antibody, V domains shown)
VH: EVQLQQSGPELVKPGASMKISCRAAGFSFTGYTMNWVKQSHGKSLEWIGLINLNNGGTSHNQKFKGKATLTVDKSSSTAYMELLSLTSEDSAVYYCARWLRRGGYAMDYWGQGISVTVSS
VL: DILLTQSPAILSVSPGERVSFSCRASQNIGTSIHWYQQRTNGSPRLLIKYASESISGIPSRFSGSGSGTDFTLSINSVESEDIADYYCQQSDSWPLTFGAGTKLELK
As usually defined, the EC50 is the midpoint of the concentration-response curve. Low values mean greater potency, high ones weaker potency. Consider B1, for which the EC50 in experiment [1] stood at 0.051 µg/mL; in experiment [2] it was 0.013 µg/mL; in experiment [3], 2 ng/mL; in experiment [4], 1 ng/mL.

B2: 1P4A12 murine monoclonal anti-RON antibody (antibody, V domains shown)
VH: EVQLQQSGPELVKPGASMKISCKASGYSFTGYTMNWVKQSHGKKLEWIGLINPYNGGTIYNQKFKGKATLTVDKSSSTAYMELLSLTSEDSAVYYCARWLRRGGYAMDYWGQGASVTVSS
VL: DILLTQSPAILSVSPGERVSFSCRASQSIGTSIHWYQQRTNGSPRLLIKFASESISGIPSRFSGSGSGTDFTLSINSVESEDIADYYCQQSDSWPLTFGAGTKLEVK
On to B2, for which the EC50 stood at 0.01 µg/mL in experiment [1], 0.016 µg/mL in experiment [2], 5 ng/mL in experiment [3] and 2 ng/mL in experiment [4].

B3: human macrophage stimulating protein (MSP) (R&D Systems cat. #4306-MS) (ligand)
chain: QRSPLNDFQVLRGTELQHLLHAVVPGPWQEDVADAEECAGRCGPLMDCRAFHYNVSSHGCQLLPWTQHSPHTRLRRSGRCDLFQKKDYVRTCIMNNGVGYRGTMATTVGGLPCQAWSHKFPNDHKYTPTLRNGLEENFCRNPDGDPGGPWCYTTDPAVRFQSCGIKSCREAACVWCNGEEYRGAVDRTESGRECQRWDLQHPHQHPFEPGKFLDQGLDDNYCRNPDGSERPWCYTTDPQIEREFCDLPRCGSEAQPRQEATTVSCFRGKGEGYRGTANTTTAGVPCQRWDAQIPHQHRFTPEKYACKDLRENFCRNPDGSEAPWCFTLRPGMRAAFCYQIRRCTDDVRPQDCYHGAGEQYRGTVSKTRKGVQCQRWSAETPHKPQFTFTSEPHAQLEENFCRNPDGDSHGPWCYTMDPRTPFDYCALRRCADDQPPSILDPPDQVQFEKCGKRVDRLDQRRSKLRVVGGHPGNSPWTVSLRNRQGQHFCGGSLVKEQWILTARQCFSSCHMPLTGYEVWLGTLFQNPQHGEPSLQRVPVAKMVCGPSGSQLVLLKLERSVTLNQRVALICLPPEWYVVPPGTKCEIAGWGETKGTGNDTVLNVALLNVISNQECNIKHRGRVRESEMCTEGLLAPVGACEGDYGGPLACFTHNCWVLEGIIIPNRVCARSRWPAVFTRVSVFVDWIHKVMRLG
In the case of B3, the concentration for a half-maximal effect (EC50) was 0.038 µg/mL in experiment [5] and 0.03 µg/mL in experiment [6].

B4: 1P3B2 murine monoclonal anti-RON antibody (antibody, V domains shown)
VH: EVQLQQSGPELEKPGASVKISCKASGYSFTGYNMNWVKQSNGESLEWIGDIDPYYGGTRYNQKFKGKATLTVDKSSSTAYMQLKSLTSEDSAVYYCAREGRGFAYWGQGTLVTVSA
VL: DIQMTQSPASLSASVGETVTITCRASENIYSYLAWYQKKQGKSPQLLVYNAKTSVEGVPSRFSGSGSGIQFSLKINSLQPEDFGSYYCHCQHHYGTLPTFGGGTKLEIK
On to B4, for which the figures for the EC50 in experiment [1], in experiment [2] and in experiment [3] were 0.006 µg/mL, 0.011 µg/mL and 10 ng/mL, respectively.

B5: 1P4A3 murine monoclonal anti-RON antibody (antibody, V domains shown)
VH: EVQLQQSGPELEKPGASVMISCKASGYSFTGYNMNWVKQSTGKSLEWIGDIDPYYDGTRYNQKFKGKATLTADKSSSTAYMQLKSLTSEDSAVYYCTREGRGFAYWGQGTLVTVSA
VL: DIQMTQSPASLSASVGETVTITCRASENIYSYLAWYQQKQGKSPQLLVYNAKTLAGGVPSRFSGSGSGTQFSLKINSLQPEDFGSYYCQHYYGTPLTFGAGTKLELK
For the molecule B5, the EC50 in experiment [1] came to 0.011 µg/mL; in experiment [2], 0.018 µg/mL; in experiment [3], 3 ng/mL; in experiment [4], 3 ng/mL.

B6: 1P2E7 murine monoclonal anti-RON antibody (antibody, V domains shown)
VH: DVQLQESGPGLVKPSQSLSLTCTVTGDSITSDYAWNWIRQFPGNKLEWMGYISYSGSTSYNPSLKSRFSITRDTSKNQFFLQLNSVTTEDSATYYCARGGFYYRYAGPGFAYWGQGTLVTVSA
VL: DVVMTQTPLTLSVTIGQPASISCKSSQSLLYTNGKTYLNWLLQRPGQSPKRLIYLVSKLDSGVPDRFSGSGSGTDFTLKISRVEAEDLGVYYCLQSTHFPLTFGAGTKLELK
On to B6, for which the 50% effective concentration (EC50) in experiment [1] was found to be 0.013 µg/mL; in experiment [2] it was 0.018 µg/mL; in experiment [3], 2 ng/mL; in experiment [4] it was 0.736 ng/mL.
